From patent US20260217835
Changes are numbered by the printed parent chain. Names may count otherwise.

T1: IgG1 Fc fragment with CH3 modification Q347R/K360E/D399V/F405T/K409W (SEQ ID NO: 66)
T1 chain: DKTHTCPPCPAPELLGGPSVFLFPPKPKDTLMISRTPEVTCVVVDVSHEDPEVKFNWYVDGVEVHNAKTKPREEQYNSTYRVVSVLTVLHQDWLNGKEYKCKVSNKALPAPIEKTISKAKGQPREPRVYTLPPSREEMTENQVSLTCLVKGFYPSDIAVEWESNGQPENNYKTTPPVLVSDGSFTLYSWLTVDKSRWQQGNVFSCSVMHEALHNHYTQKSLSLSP

T2: IgG1 Fc fragment with CH3 modification K392L/T394W/F405A/Y407V (SEQ ID NO: 70)
T2 chain: T1 chain with R127Q, E140K, K172L, T174W, V179D, T185A, Y187V, W189K

T3: IgG1 Fc fragment with CH3 modification Y349C/E357C/K392D/D399K (SEQ ID NO: 73)
T3 chain: T1 chain with R127Q, Y129C, E137C, E140K, K172D, V179K, T185F, W189K

T4: IgG1 Fc fragment with CH3 modification K392D/D399K/K409D (SEQ ID NO: 72)
T4 chain: T1 chain with R127Q, E140K, K172D, V179K, T185F, W189D

B1: full-length IgG heavy chain with CH3 modification Y349C/E357C/K392D/D399K (SEQ ID NO: 51), coexpressed with light chain SEQ ID NO: 61 (protein)
chain 1: QVQLQESGPGLVRPSQTLSLTCTVSGYSITSDHAWSWVRQPPGRGLEWIGYISYSGITTYNPSLKSRVTMLRDTSKNQFSLRLSSVTAADTAVYYCARSLARTTAMDYWGQGSLVTVSSASTKGPSVFPLAPSSKSTSGGTAALGCLVKDYFPEPVTVSWNSGALTSGVHTFPAVLQSSGLYSLSSVVTVPSSSLGTQTYICNVNHKPSNTKVDKRVEPKSCDKTHTCPPCPAPELLGGPSVFLFPPKPKDTLMISRTPEVTCVVVDVSHEDPEVKFNWYVDGVEVHNAKTKPREEQYNSTYRVVSVLTVLHQDWLNGKEYKCKVSNKALPAPIEKTISKAKGQPREPQVCTLPPSRECMTKNQVSLTCLVKGFYPSDIAVEWESNGQPENNYDTTPPVLKSDGSFFLYSKLTVDKSRWQQGNVFSCSVMHEALHNHYTQKSLSLSP
chain 2: not shown
B2: full-length IgG heavy chain with CH3 modification E345R/Q347R/K360D/T366V/D399M/Y407A/K409V (SEQ ID NO: 55), coexpressed with light chain SEQ ID NO: 61 (protein)
chain 1: B1 chain 1 with E347R, Q349R, C351Y, C359E, K362D, T368V, D394K, K401M, Y409A, K411V
chain 2: not shown
B3: full-length IgG heavy chain with CH3 modification E356K/K392D/D399K/K409D (SEQ ID NO: 56), coexpressed with light chain SEQ ID NO: 61 (protein)
chain 1: B1 chain 1 with C351Y, E358K, C359E, K411D
chain 2: not shown
B4: full-length IgG heavy chain with CH3 modification E345R/K360E/D399M/Y407A/K409V (SEQ ID NO: 58), coexpressed with light chain SEQ ID NO: 61 (protein)
chain 1: B1 chain 1 with E347R, C351Y, C359E, K362E, D394K, K401M, Y409A, K411V
chain 2: not shown
B5: full-length IgG heavy chain with CH3 modification T350V/L351Y/T366L/K392L/T394W/F405A/Y407V (SEQ ID NO: 60), coexpressed with light chain SEQ ID NO: 61 (protein)
chain 1: B1 chain 1 with C351Y, T352V, L353Y, C359E, T368L, D394L, T396W, K401D, F407A, Y409V
chain 2: not shown

Target: T1, IgG1 Fc fragment with CH3 modification …
Test: SEC area ratio of heteromultimer after coexpression of full-length heavy chain, light chain and Fc fragment in Expi293F

Protein	heterodimer formation ratio (%)
B1	0
B2	6
B3	0
B4	4
B5	0

Target: T2, IgG1 Fc fragment with CH3 modification …
Test: as above

Protein	heterodimer formation ratio (%)
B1	0
B2	0
B3	0
B4	0
B5	66

Target: T3, IgG1 Fc fragment with CH3 modification …
Test: as above

Protein	heterodimer formation ratio (%)
B1	56
B2	0
B3	0
B4	0
B5	0

Target: T4, IgG1 Fc fragment with CH3 modification …
Test: as above

Protein	heterodimer formation ratio (%)
B1	9
B2	0
B3	51
B4	3
B5	0
